Test results: patent EP4477673A1, “IMMUNOCONJUGATE AND USE THEREOF” (priority 2022, dated 2023)
Numbering of substitutions follows the chain as printed. In names and notes the source's numbering stands.

Experiments:
[1] = test system: unstimulated CD8^+ T cells; experiment: Unstimulated T cell proliferation experiment (Ki-67, FACS); type: cell-based, human; conditions: 4 days
Method: (§1) T cells stimulated with CD3 antibodies highly express PD-1. To determine whether the PD-1-IL-2v with different IL-2 mutants described above can activate T cells among human peripheral blood mononuclear cells (PBMCs) that lowly express PD-1 and highly express PD-1, T cells were isolated from PBMCs and stimulated with a CD3 antibody. The effects of the fusion proteins described above on the proliferation of unstimulated and stimulated T cells were assessed. Unstimulated T cell proliferation experiment: The isolated T cells were counted and then plated at 5 × 10^5 cells/mL onto a 96-well plate at 200 µL/well. The test samples were serially diluted with culture medium to prepare 5× working solutions, and 50 µL of each concentration of the test samples was added to the stimulated T cells and mixed well. The plate was incubated for 4 days. After the drug treatment, the cells were washed twice with FACS buffer, and dead cells were labeled with FVD780. After flow cytometry antibody staining, cell proliferation was examined by FACS.

[2] = test system: unstimulated CD4^+ T cells; experiment: as above; type: cell-based, human; conditions: 4 days
Method: as §1

[3] = test system: CD8^+ T cells stimulated with the CD3 antibody; experiment: Proliferation experiment of T cells stimulated with a CD3 antibody (Ki-67, FACS); type: cell-based, human; conditions: 4 days
Method: (§2) T cells stimulated with CD3 antibodies highly express PD-1. To determine whether the PD-1-IL-2v with different IL-2 mutants described above can activate T cells among human peripheral blood mononuclear cells (PBMCs) that lowly express PD-1 and highly express PD-1, T cells were isolated from PBMCs and stimulated with a CD3 antibody. The effects of the fusion proteins described above on the proliferation of unstimulated and stimulated T cells were assessed. Proliferation experiment of T cells stimulated with a CD3 antibody: After frozen human PBMCs were thawed, T cells were obtained by isolation using a Pan T Cell Isolation Kit (Miltenyi, 130-096-535). The CD3 antibody was diluted with PBS to 0.1 µg/mL and added to a 10 cm culture dish. The dish was coated at 37 °C for 2 h and washed with PBS for later use. The T cells were plated at 2 × 10^6 cells/mL onto the 10 cm culture dish precoated with the CD3 antibody and stimulated at 37 °C with 5% CO2 for 24 h. The stimulated T cells were collected, washed, and counted, and the cell density was adjusted to 5 × 10^5 cells/mL. The cells were plated at 200 µL/well onto a 96-well plate. The test samples were serially diluted with culture medium to prepare 5× working solutions, and 50 µL of each concentration of the test samples was added to the stimulated T cells and mixed well. The plate was incubated for 4 days. After the drug treatment, the cells were washed twice with FACS buffer (PBS + 2% FBS), and dead cells were labeled with Fixable Viability Dye (eBioscience, 65-0865-14). After flow cytometry antibody staining with CD3 (BD, 565491), CD4 (BD, 558116), CD8 (BD, 565310), Ki-67 (eBioscience, 12-5698-82)), cell proliferation was examined by FACS.

[4] = test system: CD4^+ T cells stimulated with the CD3 antibody; experiment: as above; type: cell-based, human; conditions: 4 days
Method: as §2

[5] = target: human PD-1 (human, UniProt Q15116 25-288); experiment: cell-based or functional assay
[6] = target: Human PD-1 antigen protein (Sino Biological, 10377-H08H) (human, UniProt Q15116 25-167); experiment: SPR Biacore 8K, fusion protein captured by anti-human IgG (Fc), human PD-1 as analyte
Human PD-1 antigen protein (Sino Biological, 10377-H08H), sequence (Q15116 25-167 limits assumed): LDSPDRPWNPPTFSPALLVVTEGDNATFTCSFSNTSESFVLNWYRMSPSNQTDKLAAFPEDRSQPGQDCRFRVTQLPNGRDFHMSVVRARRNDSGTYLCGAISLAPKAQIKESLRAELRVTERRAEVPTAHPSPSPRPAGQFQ

human PD-1, sequence (Q15116 25-288 limits assumed): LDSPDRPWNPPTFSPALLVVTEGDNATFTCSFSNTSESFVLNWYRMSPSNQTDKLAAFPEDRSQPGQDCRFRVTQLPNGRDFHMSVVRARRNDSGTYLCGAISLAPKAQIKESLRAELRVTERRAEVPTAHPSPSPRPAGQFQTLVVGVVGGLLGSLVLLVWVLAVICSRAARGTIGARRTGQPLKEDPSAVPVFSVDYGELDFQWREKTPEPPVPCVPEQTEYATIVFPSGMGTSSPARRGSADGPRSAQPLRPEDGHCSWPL

B1: PEG-IL-2v (conjugate)
chain: APASSSTKKTQLQLEHLLLDLQMILQGISNYKNPKLTRMLTAKFYMPKKATELKHLQCLEEELKPLEEVLQGAQSKNFHLRPRDLISNINVIVLELKGSETTFMCEYADETATIVEFLNRWITFAQSIISTLT
CD8^+ Ki67^+ cells (%) ([1]; 0.001 nM): 0.22% | CD8^+ Ki67^+ cells (%) ([1]; 0.01 nM): 0.59% | CD8^+ Ki67^+ cells (%) ([1]; 0.1 nM): 0.29% | CD8^+ Ki67^+ cells (%) ([1]; 1 nM): 1.54% | CD8^+ Ki67^+ cells (%) ([1]; 10 nM): 43% | CD8^+ Ki67^+ cells (%) ([1]; 100 nM): 87.3% | CD4^+ Ki67^+ cells (%) ([2]; 0.001 nM): 0.29% | CD4^+ Ki67^+ cells (%) ([2]; 0.01 nM): 1.51% | CD4^+ Ki67^+ cells (%) ([2]; 0.1 nM): 1.38% | CD4^+ Ki67^+ cells (%) ([2]; 1 nM): 1.77% | CD4^+ Ki67^+ cells (%) ([2]; 10 nM): 10.2% | CD4^+ Ki67^+ cells (%) ([2]; 100 nM): 45% | CD8^+ Ki67^+ cells (%) ([3]; 0.001 nM): 55.5% | CD8^+ Ki67^+ cells (%) ([3]; 0.01 nM): 55.5% | CD8^+ Ki67^+ cells (%) ([3]; 0.1 nM): 67.1% | CD8^+ Ki67^+ cells (%) ([3]; 1 nM): 76.6% | CD8^+ Ki67^+ cells (%) ([3]; 10 nM): 82% | CD8^+ Ki67^+ cells (%) ([3]; 100 nM): 82.5% | CD4^+ Ki67^+ cells (%) ([4]; 0.001 nM): 32.9% | CD4^+ Ki67^+ cells (%) ([4]; 0.01 nM): 34.8% | CD4^+ Ki67^+ cells (%) ([4]; 0.1 nM): 43.3% | CD4^+ Ki67^+ cells (%) ([4]; 1 nM): 63% | CD4^+ Ki67^+ cells (%) ([4]; 10 nM): 73% | CD4^+ Ki67^+ cells (%) ([4]; 100 nM): 74.7%

B2: A-N88D-M08 (Fc fusion)
chain (part 1 of 2): EVQLVESGGGLVQPGGSLRLSCAASGLTFSDYSMSWYRQAPGKGRELVAIISGSGVITHYVDSVKGRFTISRDNAKNTLYLQMRSLRAEDTAVYYCRAVSDWQDYWGQGTQVTVSS
chain (part 2 of 2): GGGGSGGGGSGGGGSAPASSSTKKTQLQLEHLLLDLQMILQGISNYKNPKLTRMLTAKFYMPKKATELKHLQCLEEELKPLEEVLQGAQSKNFHLRPRDLISDINVIVLELKGSETTFMCEYADETATIVEFLNRWITFAQSIISTLT
chain: B2 chain (part 1 of 2)
notes: also called A-N88D-M8; not shown: IgG1 hinge (C220S) + Fc Knob chain as in A-N88D; IgG1 hinge (C220S) + Fc Hole chain as in A-N88D
M07e-hPD-1 cell proliferation ratio (%) at 0.0001 nM [5]: 3.8% | M07e-hPD-1 cell proliferation ratio (%) at 0.001 nM [5]: 4.5% | M07e-hPD-1 cell proliferation ratio (%) at 0.01 nM [5]: 11.9% | M07e-hPD-1 cell proliferation ratio (%) at 0.1 nM [5]: 27.3% | M07e-hPD-1 cell proliferation ratio (%) at 1 nM [5]: 36% | M07e-hPD-1 cell proliferation ratio (%) at 10 nM [5]: 35.5% | M07e-hPD-1 cell proliferation ratio (%) at 100 nM [5]: 35.5% | M07e-hPD-1 cell proliferation ratio (%) at 1000 nM [5]: 44.2% | Kd [6]: 12.3 nM | koff [6]: 0.00264 s⁻¹ | kon [6]: 215000 M⁻¹ s⁻¹

B3: A-N88D-M15 (Fc fusion)
chain (part 1 of 2): B2 chain (part 1 of 2) with V56G, Q103E
chain (part 2 of 2): B2 chain (part 2 of 2)
chain: B2 chain (part 1 of 2) with V56G, Q103E
notes: not shown: IgG1 hinge (C220S) + Fc Knob chain as in A-N88D; IgG1 hinge (C220S) + Fc Hole chain as in A-N88D
M07e-hPD-1 cell proliferation ratio (%) at 0.0001 nM [5]: 8.9% | M07e-hPD-1 cell proliferation ratio (%) at 0.001 nM [5]: 4.1% | M07e-hPD-1 cell proliferation ratio (%) at 0.01 nM [5]: 7% | M07e-hPD-1 cell proliferation ratio (%) at 0.1 nM [5]: 17% | M07e-hPD-1 cell proliferation ratio (%) at 1 nM [5]: 32.9% | M07e-hPD-1 cell proliferation ratio (%) at 10 nM [5]: 41.6% | M07e-hPD-1 cell proliferation ratio (%) at 100 nM [5]: 54.9% | M07e-hPD-1 cell proliferation ratio (%) at 1000 nM [5]: 47.7% | Kd [6]: 29.3 nM | koff [6]: 0.00706 s⁻¹ | kon [6]: 241000 M⁻¹ s⁻¹

B4: A-N88D-M28 (Fc fusion)
chain (part 1 of 2): B2 chain (part 1 of 2) with D31S, V56G, V61A
chain (part 2 of 2): B2 chain (part 2 of 2)
chain: B2 chain (part 1 of 2) with D31S, V56G, V61A
notes: as for B3
M07e-hPD-1 cell proliferation ratio (%) at 0.0001 nM [5]: 7.2% | M07e-hPD-1 cell proliferation ratio (%) at 0.001 nM [5]: 6.3% | M07e-hPD-1 cell proliferation ratio (%) at 0.01 nM [5]: 9.4% | M07e-hPD-1 cell proliferation ratio (%) at 0.1 nM [5]: 7.6% | M07e-hPD-1 cell proliferation ratio (%) at 1 nM [5]: 12.4% | M07e-hPD-1 cell proliferation ratio (%) at 10 nM [5]: 19.1% | M07e-hPD-1 cell proliferation ratio (%) at 100 nM [5]: 34.4% | M07e-hPD-1 cell proliferation ratio (%) at 1000 nM [5]: 51.3% | Kd [6]: 134 nM | koff [6]: 0.0198 s⁻¹ | kon [6]: 148000 M⁻¹ s⁻¹

B5: A-N88D-M26 (Fc fusion)
chain (part 1 of 2): B2 chain (part 1 of 2) with D31S, V56G, Q103E
chain (part 2 of 2): B2 chain (part 2 of 2)
chain: B2 chain (part 1 of 2) with D31S, V56G, Q103E
notes: as for B3
M07e-hPD-1 cell proliferation ratio (%) at 0.0001 nM [5]: 3.7% | M07e-hPD-1 cell proliferation ratio (%) at 0.001 nM [5]: 4.8% | M07e-hPD-1 cell proliferation ratio (%) at 0.01 nM [5]: 9.3% | M07e-hPD-1 cell proliferation ratio (%) at 0.1 nM [5]: 10.7% | M07e-hPD-1 cell proliferation ratio (%) at 1 nM [5]: 23.2% | M07e-hPD-1 cell proliferation ratio (%) at 10 nM [5]: 37% | M07e-hPD-1 cell proliferation ratio (%) at 100 nM [5]: 43.1% | M07e-hPD-1 cell proliferation ratio (%) at 1000 nM [5]: 54.4% | Kd [6]: 53.1 nM | koff [6]: 0.00948 s⁻¹ | kon [6]: 179000 M⁻¹ s⁻¹

B6: A-N88D-M27 (Fc fusion)
chain (part 1 of 2): B2 chain (part 1 of 2) with D31S, V56G
chain (part 2 of 2): B2 chain (part 2 of 2)
chain: B2 chain (part 1 of 2) with D31S, V56G
notes: as for B3
M07e-hPD-1 cell proliferation ratio (%) at 0.0001 nM [5]: 7.5% | M07e-hPD-1 cell proliferation ratio (%) at 0.001 nM [5]: 4.9% | M07e-hPD-1 cell proliferation ratio (%) at 0.01 nM [5]: 4.9% | M07e-hPD-1 cell proliferation ratio (%) at 0.1 nM [5]: 9.3% | M07e-hPD-1 cell proliferation ratio (%) at 1 nM [5]: 21.1% | M07e-hPD-1 cell proliferation ratio (%) at 10 nM [5]: 31.9% | M07e-hPD-1 cell proliferation ratio (%) at 100 nM [5]: 39.5% | M07e-hPD-1 cell proliferation ratio (%) at 1000 nM [5]: 60% | Kd [6]: 74.3 nM | koff [6]: 0.0102 s⁻¹ | kon [6]: 137000 M⁻¹ s⁻¹
